Reference: patent US20200270588A1, “GLUCOSYL TRANSFERASE POLYPEPTIDES AND METHODS OF USE” (Syngenta Participations AG, priority 2017, published 2020)
Substitutions are numbered along the chain they refer to. Names may count otherwise.

Assays:
[1] = UDP luminescence plate assay of E. coli extracts, saturation mutants of SEQ ID NO: 1, herbicide V; format: biochemical, Zea mays; conditions: improvement factor relative to w/t bx9 = 1.0, rounded to nearest 0.5; extract activity basis; compound V
[2] = UDP luminescence plate assay of E. coli extracts, mutants of SEQ ID No: 1, 2 mM metribuzin; format: biochemical, Zea mays; conditions: for SIGNAL: metribuzin signal of mutant divided by the signal of w/t bx9 / luminescence signal observed with 2 mM metribuzin / SIGNAL: metribuzin signal of mutant divided by metribuzin signal of w/t bx9 / luminescence signal with metribuzin: 2 mM metribuzin; for SIGNAL: metribuzin signal of mutant divided by the signal of w/t bx9: relative to bx9 w/t; for luminescence signal in the DMSO control: mutants of SEQ ID No: 1, DMSO in place of metribuzin (background UDP-glucose hydrolysis); for luminescence signal observed with 2 mM metribuzin: mutants of SEQ ID No: 1 in E. coli extracts, UDP luminescence; for luminescence signal with metribuzin: H24A null background 1.00E+05 not subtracted; for RATIO of the metribuzin signal to the DMSO signal: 2 mM metribuzin vs DMSO control, same mutant
How it was run: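 Extracts of E. coli BL21 DE3 expressing C-terminally His-tagged SEQ ID NO:1 variants incubated with 2 mM metribuzin; UDP formed read by UDP-Glo luminescence against a UDP standard curve, with optional 95 C stop. Mutants ranked by metribuzin/DMSO signal ratio and signal increase over wild-type bx9.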

B1: A281M: bx9 SEQ ID NO:1 mutant (protein)
chain: MASSRTGAGAGGRVVVFPFPFQGHFNPVMRLARALHARGLAITVFHSGALDPADYPADYRFVPVTVEADPKLLASEDIAAIVTTLNASCDAPFRARLSALLAAEGRDSVRCVFTDVSWNAVLTASSDLGVPALGMMTASAASLRDYMAYRTLIDKGYLPVKEERKEDPVPELPPYLVKDLLRVDTSDLEEFAELLARTVTAARRASGLIFNTFPLIETDTLAEIHKALSVPVFAVAPLNKLVPTATASLHGVVQADRGCLQWLDTQQPGSVLYVSFGSMAMMDPHEFVELAWGLADSKRPFVWVVRPNLIRGFESGALPDGVEDEVRGRGIVVAWAPQEEVLAHPAVGGFLTHNGWNSTVEAISEGVPMVCCPRHGDQFGNMRYVCDVWKVGTELVGEQLERGQVKAAIDRLFGTKEGEEIKERMKEFKIAAAKGIGIGVDVDETASPRTDLTDLVDLIKSF
modifications: Zea mays
Most Preferred amino acid substitutions and (IF) based on RLU/min/ul [1]: 5.0 | SIGNAL: metribuzin signal of mutant divided by the signal of w/t bx9 [2]: 2.59 | luminescence signal in the DMSO control [2]: 8.45E+05 | luminescence signal observed with 2 mM metribuzin [2]: 7.25E+05

B2: A281R: bx9 SEQ ID NO:1 mutant (protein)
chain: B1 chain with M281R
modifications: Zea mays
Most Preferred amino acid substitutions and (IF) based on RLU/min/ul [1]: 5.0 | SIGNAL: metribuzin signal of mutant divided by the signal of w/t bx9 [2]: 3.90 | luminescence signal in the DMSO control [2]: 1.30E+06 | luminescence signal observed with 2 mM metribuzin [2]: 1.09E+06

B3: A281K: bx9 SEQ ID NO:1 mutant (protein)
chain: B1 chain with M281K
modifications: Zea mays
Most Preferred amino acid substitutions and (IF) based on RLU/min/ul [1]: 6.0 | SIGNAL: metribuzin signal of mutant divided by the signal of w/t bx9 [2]: 4.98 | luminescence signal in the DMSO control [2]: 1.66E+06 | luminescence signal observed with 2 mM metribuzin [2]: 1.39E+06

B4: A334N: bx9 SEQ ID NO:1 mutant (protein)
chain: B1 chain with M281A, A334N
modifications: Zea mays
Preferred amino acid substitutions and (IF) based on RLU/min/ul [1]: N(1.0) | SIGNAL: metribuzin signal of mutant divided by metribuzin signal of w/t bx9 [2]: 1.56 | luminescence signal with metribuzin [2]: 1.93E+05

B5: A334R: bx9 SEQ ID NO:1 mutant (protein)
chain: B1 chain with M281A, A334R
modifications: Zea mays
Most Preferred amino acid substitutions and (IF) based on RLU/min/ul [1]: K,R(2.0) | SIGNAL: metribuzin signal of mutant divided by metribuzin signal of w/t bx9 [2]: 1.94 | luminescence signal with metribuzin [2]: 2.39E+05

B6: A334S: bx9 SEQ ID NO:1 mutant (protein)
chain: B1 chain with M281A, A334S
modifications: Zea mays
Preferred amino acid substitutions and (IF) based on RLU/min/ul [1]: S,Q,V,L(1.5) | SIGNAL: metribuzin signal of mutant divided by metribuzin signal of w/t bx9 [2]: 0.98 | luminescence signal with metribuzin [2]: 1.21E+05

B7: A334Q: bx9 SEQ ID NO:1 mutant (protein)
chain: B1 chain with M281A, A334Q
modifications: Zea mays
Preferred amino acid substitutions and (IF) based on RLU/min/ul [1]: S,Q,V,L(1.5) | SIGNAL: metribuzin signal of mutant divided by the signal of w/t bx9 [2]: 1.22 | luminescence signal in the DMSO control [2]: 4.88E+05 | luminescence signal observed with 2 mM metribuzin [2]: 3.40E+05

B8: A334V: bx9 SEQ ID NO:1 mutant (protein)
chain: B1 chain with M281A, A334V
modifications: Zea mays
Preferred amino acid substitutions and (IF) based on RLU/min/ul [1]: S,Q,V,L(1.5) | SIGNAL: metribuzin signal of mutant divided by the signal of w/t bx9 [2]: 1.57 | luminescence signal in the DMSO control [2]: 4.80E+05 | luminescence signal observed with 2 mM metribuzin [2]: 4.40E+05

B9: A334L: bx9 SEQ ID NO:1 mutant (protein)
chain: B1 chain with M281A, A334L
modifications: Zea mays
Preferred amino acid substitutions and (IF) based on RLU/min/ul [1]: S,Q,V,L(1.5) | SIGNAL: metribuzin signal of mutant divided by the signal of w/t bx9 [2]: 1.51 | luminescence signal in the DMSO control [2]: 5.19E+05 | luminescence signal observed with 2 mM metribuzin [2]: 4.22E+05

B10: I363L: bx9 SEQ ID NO:1 mutant (protein)
chain: B1 chain with M281A, I363L
modifications: Zea mays
Most Preferred amino acid substitutions and (IF) based on RLU/min/ul [1]: L,M(3.0) | SIGNAL: metribuzin signal of mutant divided by the signal of w/t bx9 [2]: 1.24 | luminescence signal in the DMSO control [2]: 4.00E+05 | luminescence signal observed with 2 mM metribuzin [2]: 3.47E+05

B11: I363M: bx9 SEQ ID NO:1 mutant (protein)
chain: B1 chain with M281A, I363M
modifications: Zea mays
Most Preferred amino acid substitutions and (IF) based on RLU/min/ul [1]: L,M(3.0) | RATIO of the metribuzin signal to the DMSO signal [2]: 0.90 | SIGNAL: metribuzin signal of mutant divided by the signal of w/t bx9 [2]: 1.67 | luminescence signal in the DMSO control [2]: 5.22E+05 | luminescence signal observed with 2 mM metribuzin [2]: 4.68E+05

B12: G376M: bx9 SEQ ID NO:1 mutant (protein)
chain: B1 chain with M281A, G376M
modifications: Zea mays
Preferred amino acid substitutions and (IF) based on RLU/min/ul [1]: C,M(1.0) | RATIO of the metribuzin signal to the DMSO signal [2]: 1.13 | SIGNAL: metribuzin signal of mutant divided by the signal of w/t bx9 [2]: 1.13 | luminescence signal in the DMSO control [2]: 2.80E+05 | luminescence signal observed with 2 mM metribuzin [2]: 3.15E+05

B13: G376L: bx9 SEQ ID NO:1 mutant (protein)
chain: B1 chain with M281A, G376L
modifications: Zea mays
Most Preferred amino acid substitutions and (IF) based on RLU/min/ul [1]: L(2.0) | RATIO of the metribuzin signal to the DMSO signal [2]: 0.99 | SIGNAL: metribuzin signal of mutant divided by the signal of w/t bx9 [2]: 1.27 | luminescence signal in the DMSO control [2]: 3.59E+05 | luminescence signal observed with 2 mM metribuzin [2]: 3.56E+05

B14: F19M: bx9 SEQ ID NO:1 mutant (protein)
chain: B1 chain with F19M, M281A
modifications: Zea mays
Preferred amino acid substitutions and (IF) based on RLU/min/ul [1]: M(1.0) | SIGNAL: metribuzin signal of mutant divided by metribuzin signal of w/t bx9 [2]: 0.86 | luminescence signal with metribuzin [2]: 1.07E+05 | SIGNAL: metribuzin signal of mutant divided by the signal of w/t bx9 [2]: 0.99 | luminescence signal in the DMSO control [2]: 1.92E+05 | luminescence signal observed with 2 mM metribuzin [2]: 2.76E+05

B15: L143M: bx9 SEQ ID NO:1 mutant (protein)
chain: B1 chain with L143M, M281A
modifications: Zea mays
Preferred amino acid substitutions and (IF) based on RLU/min/ul [1]: M,Y(1.0) | RATIO of the metribuzin signal to the DMSO signal [2]: 1.04 | SIGNAL: metribuzin signal of mutant divided by the signal of w/t bx9 [2]: 1.02 | luminescence signal in the DMSO control [2]: 2.74E+05 | luminescence signal observed with 2 mM metribuzin [2]: 2.86E+05

B16: L143Y: bx9 SEQ ID NO:1 mutant (protein)
chain: B1 chain with L143Y, M281A
modifications: Zea mays
Preferred amino acid substitutions and (IF) based on RLU/min/ul [1]: M,Y(1.0) | SIGNAL: metribuzin signal of mutant divided by the signal of w/t bx9 [2]: 1.06 | luminescence signal in the DMSO control [2]: 2.77E+05 | luminescence signal observed with 2 mM metribuzin [2]: 2.98E+05

B17: V199M: bx9 SEQ ID NO:1 mutant (protein)
chain: B1 chain with V199M, M281A
modifications: Zea mays
Preferred amino acid substitutions and (IF) based on RLU/min/ul [1]: M,N(1.0) | RATIO of the metribuzin signal to the DMSO signal [2]: 1.02 | SIGNAL: metribuzin signal of mutant divided by the signal of w/t bx9 [2]: 0.92 | luminescence signal in the DMSO control [2]: 2.53E+05 | luminescence signal observed with 2 mM metribuzin [2]: 2.58E+05

B18: A202S: bx9 SEQ ID NO:1 mutant (protein)
chain: B1 chain with A202S, M281A
modifications: Zea mays
Preferred amino acid substitutions and (IF) based on RLU/min/ul [1]: S,I,C,M(1.0) | RATIO of the metribuzin signal to the DMSO signal [2]: 0.94 | SIGNAL: metribuzin signal of mutant divided by the signal of w/t bx9 [2]: 0.91 | luminescence signal in the DMSO control [2]: 2.70E+05 | luminescence signal observed with 2 mM metribuzin [2]: 2.53E+05

B19: A202T: bx9 SEQ ID NO:1 mutant (protein)
chain: B1 chain with A202T, M281A
modifications: Zea mays
Preferred amino acid substitutions and (IF) based on RLU/min/ul [1]: T,I,V,L,F(1.5) | SIGNAL: metribuzin signal of mutant divided by the signal of w/t bx9 [2]: 0.93 | luminescence signal in the DMSO control [2]: 2.52E+05 | luminescence signal observed with 2 mM metribuzin [2]: 2.61E+05

B20: T220F: bx9 SEQ ID NO:1 mutant (protein)
chain: B1 chain with T220F, M281A
modifications: Zea mays
Most Preferred amino acid substitutions and (IF) based on RLU/min/ul [1]: 3.5 | SIGNAL: metribuzin signal of mutant divided by the signal of w/t bx9 [2]: 2.22 | luminescence signal in the DMSO control [2]: 7.87E+05 | luminescence signal observed with 2 mM metribuzin [2]: 6.21E+05

B21: T220W: bx9 SEQ ID NO:1 mutant (protein)
chain: B1 chain with T220W, M281A
modifications: Zea mays
Most Preferred amino acid substitutions and (IF) based on RLU/min/ul [1]: 3.5 | SIGNAL: metribuzin signal of mutant divided by the signal of w/t bx9 [2]: 1.59 | luminescence signal in the DMSO control [2]: 4.99E+05 | luminescence signal observed with 2 mM metribuzin [2]: 4.44E+05

B22: T220H: bx9 SEQ ID NO:1 mutant (protein)
chain: B1 chain with T220H, M281A
modifications: Zea mays
Most Preferred amino acid substitutions and (IF) based on RLU/min/ul [1]: H,P(4.0) | SIGNAL: metribuzin signal of mutant divided by the signal of w/t bx9 [2]: 1.82 | luminescence signal in the DMSO control [2]: 5.47E+05 | luminescence signal observed with 2 mM metribuzin [2]: 5.08E+05
